Patent US20210363254A1 (Novartis, published 2021)

B1: BAP049-hum10 (antibody, human IgG4 S228P, kappa)
heavy: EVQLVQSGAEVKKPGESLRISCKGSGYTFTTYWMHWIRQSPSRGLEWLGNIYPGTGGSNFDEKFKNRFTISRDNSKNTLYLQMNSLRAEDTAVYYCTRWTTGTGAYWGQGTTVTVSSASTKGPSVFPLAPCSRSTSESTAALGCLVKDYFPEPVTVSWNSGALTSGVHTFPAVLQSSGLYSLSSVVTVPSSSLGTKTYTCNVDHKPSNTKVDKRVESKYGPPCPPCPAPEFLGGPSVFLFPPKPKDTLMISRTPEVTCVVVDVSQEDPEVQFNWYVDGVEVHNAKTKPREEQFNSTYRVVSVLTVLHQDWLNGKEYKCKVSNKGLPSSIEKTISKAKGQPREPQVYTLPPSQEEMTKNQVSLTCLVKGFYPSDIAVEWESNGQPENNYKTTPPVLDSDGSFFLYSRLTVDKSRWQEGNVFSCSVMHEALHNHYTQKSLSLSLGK
light: EIVLTQSPATLSLSPGERATLSCKSSQSLLDSGNQKNFLTWYQQKPGQAPRLLIYWASTRESGVPSRFSGSGSGTDFTFTISSLEAEDAATYYCQNDYSYPYTFGQGTKVEIKRTVAAPSVFIFPPSDEQLKSGTASVVCLLNNFYPREAKVQWKVDNALQSGNSQESVTEQDSKDSTYSLSSTLTLSKADYEKHKVYACEVTHQGLSSPVTKSFNRGEC
notes: also called humanized BAP049 clone hum10
B2: BAP049-hum04 (antibody, human IgG4 S228P, kappa, V domains shown)
VH: EVQLVQSGAEVKKPGESLRISCKGSGYTFTTYWMHWIRQSPSRGLEWLGNIYPGTGGSNFDEKFKNRFTISRDNSKNTLYLQMNSLRAEDTAVYYCTRWTTGTGAYWGQGTTVTVSS
VL: EIVLTQSPATLSLSPGERATLSCKSSQSLLDSGNQKNFLTWYQQKPGKAPKLLIYWASTRESGVPSRFSGSGSGTDFTFTISSLQPEDIATYYCQNDYSYPYTFGQGTKVEIKR
notes: also called clone 4
B3: BAP049-hum08 (antibody, human IgG4 S228P, kappa)
heavy: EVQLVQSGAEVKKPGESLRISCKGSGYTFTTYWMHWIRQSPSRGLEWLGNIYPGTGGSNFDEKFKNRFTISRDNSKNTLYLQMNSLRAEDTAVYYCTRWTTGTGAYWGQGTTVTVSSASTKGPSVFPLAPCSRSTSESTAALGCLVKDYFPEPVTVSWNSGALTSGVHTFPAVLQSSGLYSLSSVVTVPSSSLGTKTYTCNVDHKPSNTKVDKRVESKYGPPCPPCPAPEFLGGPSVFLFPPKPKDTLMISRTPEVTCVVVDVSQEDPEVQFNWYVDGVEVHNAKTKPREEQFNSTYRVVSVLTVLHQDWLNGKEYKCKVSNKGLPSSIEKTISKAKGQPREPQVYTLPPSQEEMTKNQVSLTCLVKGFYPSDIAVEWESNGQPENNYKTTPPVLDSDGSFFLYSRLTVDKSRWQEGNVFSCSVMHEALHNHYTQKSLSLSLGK
light: EIVLTQSPDFQSVTPKEKVTITCKSSQSLLDSGNQKNFLTWYQQKPGQAPRLLIYWASTRESGVPSRFSGSGSGTDFTFTISSLEAEDAATYYCQNDYSYPYTFGQGTKVEIKRTVAAPSVFIFPPSDEQLKSGTASVVCLLNNFYPREAKVQWKVDNALQSGNSQESVTEQDSKDSTYSLSSTLTLSKADYEKHKVYACEVTHQGLSSPVTKSFNRGEC
notes: also called humanized BAP049 clone hum08
B4: BAP049-hum14 (antibody, human IgG4 S228P, kappa)
heavy chain: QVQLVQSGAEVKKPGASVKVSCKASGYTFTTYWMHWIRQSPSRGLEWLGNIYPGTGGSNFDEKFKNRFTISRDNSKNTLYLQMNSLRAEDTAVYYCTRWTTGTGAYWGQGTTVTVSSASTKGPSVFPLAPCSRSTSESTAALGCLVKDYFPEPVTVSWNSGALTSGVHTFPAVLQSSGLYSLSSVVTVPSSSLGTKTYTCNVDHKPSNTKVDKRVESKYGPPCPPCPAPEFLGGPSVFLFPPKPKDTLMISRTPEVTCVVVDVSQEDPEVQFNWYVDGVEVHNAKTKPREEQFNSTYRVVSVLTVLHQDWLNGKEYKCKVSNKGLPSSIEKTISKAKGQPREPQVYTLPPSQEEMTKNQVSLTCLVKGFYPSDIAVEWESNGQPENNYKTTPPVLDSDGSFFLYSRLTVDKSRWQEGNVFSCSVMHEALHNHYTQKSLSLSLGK
light chain: EIVLTQSPATLSLSPGERATLSCKSSQSLLDSGNQKNFLTWYQQKPGQAPRLLIYWASTRESGVPSRFSGSGSGTDFTFTISSLEAEDAATYYCQNDYSYPYTFGQGTKVEIKRTVAAPSVFIFPPSDEQLKSGTASVVCLLNNFYPREAKVQWKVDNALQSGNSQESVTEQDSKDSTYSLSSTLTLSKADYEKHKVYACEVTHQGLSSPVTKSFNRGEC
notes: also called clone 14
B5: Chi mAb (Tyr) (antibody, human IgG4 S228P, kappa, V domains shown)
VH: QVQLQQSGSELVRPGASVKLSCKASGYTFTTYWMHWVRQRPGQGLEWIGNIYPGTGGSNFDEKFKNRTSLTVDTSSTTAYMHLASLTSEDSAVYYCTRWTTGTGAYWGQGTTVTVSS
VL: DIVMTQSPSSLTVTAGEKVTMSCKSSQSLLDSGNQKNFLTWYQQKPGQPPKLLIFWASTRESGVPDRFTGSGSVTDFTLTISSVQAEDLAVYYCQNDYSYPYTFGQGTKVEIKR
notes: also called BAP049-chi-Y; Chi (Tyr)
B6: Mu mAb (antibody, V domains shown)
VH: QVQLQQSGSELVRPGASVKLSCKASGYTFTTYWMHWVRQRPGQGLEWIGNIYPGTGGSNFDEKFKNRTSLTVDTSSTTAYMHLASLTSEDSAVYYCTRWTTGTGAYWGQGTLVTVSA
VL: DIVMTQSPSSLTVTAGEKVTMSCKSSQSLLDSGNQKNFLTWYQQKPGQPPKLLIFWASTRESGVPDRFTGSGSVTDFTLTISSVQAEDLAVYYCQNDYSYPCTFGGGTKLEIK
notes: also called murine mAb BAP049; murine anti-PD-1 mAb BAP049
B7: BAP049-hum11 (antibody, human IgG4 S228P, kappa)
heavy: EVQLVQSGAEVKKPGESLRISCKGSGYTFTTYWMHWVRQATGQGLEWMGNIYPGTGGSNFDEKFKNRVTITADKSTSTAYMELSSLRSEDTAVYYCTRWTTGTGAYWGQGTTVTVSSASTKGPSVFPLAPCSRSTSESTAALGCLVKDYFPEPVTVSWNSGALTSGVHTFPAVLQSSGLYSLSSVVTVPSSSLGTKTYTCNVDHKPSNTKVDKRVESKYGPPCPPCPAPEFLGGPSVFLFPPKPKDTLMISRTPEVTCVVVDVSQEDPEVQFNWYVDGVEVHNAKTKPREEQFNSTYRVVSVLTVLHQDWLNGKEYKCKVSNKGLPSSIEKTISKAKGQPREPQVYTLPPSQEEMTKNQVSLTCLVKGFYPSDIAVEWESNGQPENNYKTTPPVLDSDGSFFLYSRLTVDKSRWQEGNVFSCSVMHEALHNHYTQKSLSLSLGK
light: EIVLTQSPATLSLSPGERATLSCKSSQSLLDSGNQKNFLTWYQQKPGQAPRLLIYWASTRESGVPSRFSGSGSGTDFTFTISSLEAEDAATYYCQNDYSYPYTFGQGTKVEIKRTVAAPSVFIFPPSDEQLKSGTASVVCLLNNFYPREAKVQWKVDNALQSGNSQESVTEQDSKDSTYSLSSTLTLSKADYEKHKVYACEVTHQGLSSPVTKSFNRGEC
notes: also called humanized BAP049 clone hum11
B8: BAP049-hum01 (antibody, human IgG4 S228P, kappa, V domains shown)
VH: EVQLVQSGAEVKKPGESLRISCKGSGYTFTTYWMHWVRQATGQGLEWMGNIYPGTGGSNFDEKFKNRVTITADKSTSTAYMELSSLRSEDTAVYYCTRWTTGTGAYWGQGTTVTVSS
VL: EIVLTQSPATLSLSPGERATLSCKSSQSLLDSGNQKNFLTWYQQKPGQAPRLLIYWASTRESGVPSRFSGSGSGTEFTLTISSLQPDDFATYYCQNDYSYPYTFGQGTKVEIKR
notes: Humanized anti-PD-1 mAb; also called humanized BAP049 clone hum01
B9: BAP049-hum05 (antibody, human IgG4 S228P, kappa, V domains shown)
VH: EVQLVQSGAEVKKPGESLRISCKGSGYTFTTYWMHWVRQATGQGLEWMGNIYPGTGGSNFDEKFKNRVTITADKSTSTAYMELSSLRSEDTAVYYCTRWTTGTGAYWGQGTTVTVSS
VL: EIVLTQSPATLSLSPGERATLSCKSSQSLLDSGNQKNFLTWYQQKPGKAPKLLIYWASTRESGVPSRFSGSGSGTDFTFTISSLQPEDIATYYCQNDYSYPYTFGQGTKVEIKR
notes: also called humanized BAP049 clone hum05
B10: BAP049-hum06 (antibody, human IgG4 S228P, kappa)
heavy chain: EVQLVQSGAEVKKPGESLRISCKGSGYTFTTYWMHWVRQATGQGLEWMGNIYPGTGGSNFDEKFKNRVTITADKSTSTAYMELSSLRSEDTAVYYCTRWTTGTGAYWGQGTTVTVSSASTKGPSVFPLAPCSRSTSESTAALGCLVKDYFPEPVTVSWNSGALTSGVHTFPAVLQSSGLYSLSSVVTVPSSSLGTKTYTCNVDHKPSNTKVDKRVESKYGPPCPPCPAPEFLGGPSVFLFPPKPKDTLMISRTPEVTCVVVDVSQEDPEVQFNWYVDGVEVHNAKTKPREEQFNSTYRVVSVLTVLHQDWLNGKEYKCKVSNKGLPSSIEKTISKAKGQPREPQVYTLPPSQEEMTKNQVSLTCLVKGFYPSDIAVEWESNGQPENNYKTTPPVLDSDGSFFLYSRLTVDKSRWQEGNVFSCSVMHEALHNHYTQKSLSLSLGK
light chain: DIVMTQTPLSLPVTPGEPASISCKSSQSLLDSGNQKNFLTWYQQKPGQAPRLLIYWASTRESGVPSRFSGSGSGTDFTFTISSLEAEDAATYYCQNDYSYPYTFGQGTKVEIKRTVAAPSVFIFPPSDEQLKSGTASVVCLLNNFYPREAKVQWKVDNALQSGNSQESVTEQDSKDSTYSLSSTLTLSKADYEKHKVYACEVTHQGLSSPVTKSFNRGEC
notes: also called clone 6
B11: BAP049-hum07 (antibody, human IgG4 S228P, kappa)
heavy chain: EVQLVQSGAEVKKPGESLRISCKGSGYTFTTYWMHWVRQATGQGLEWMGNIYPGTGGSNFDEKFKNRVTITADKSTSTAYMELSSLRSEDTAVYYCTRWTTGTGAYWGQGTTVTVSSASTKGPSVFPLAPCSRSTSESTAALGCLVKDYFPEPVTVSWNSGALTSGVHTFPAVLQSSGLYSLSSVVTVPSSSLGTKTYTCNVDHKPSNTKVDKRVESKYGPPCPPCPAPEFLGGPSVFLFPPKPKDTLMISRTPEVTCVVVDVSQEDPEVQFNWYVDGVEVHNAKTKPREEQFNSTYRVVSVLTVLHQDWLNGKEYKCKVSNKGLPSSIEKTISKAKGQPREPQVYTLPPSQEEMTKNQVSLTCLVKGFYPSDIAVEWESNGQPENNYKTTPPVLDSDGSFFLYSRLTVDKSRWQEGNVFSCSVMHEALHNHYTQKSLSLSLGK
light chain: EIVLTQSPATLSLSPGERATLSCKSSQSLLDSGNQKNFLTWYQQKPGKAPKLLIYWASTRESGVPSRFSGSGSGTDFTFTISSLEAEDAATYYCQNDYSYPYTFGQGTKVEIKRTVAAPSVFIFPPSDEQLKSGTASVVCLLNNFYPREAKVQWKVDNALQSGNSQESVTEQDSKDSTYSLSSTLTLSKADYEKHKVYACEVTHQGLSSPVTKSFNRGEC
notes: also called clone 7
B12: BAP049-hum09 (antibody, human IgG4 S228P, kappa)
heavy: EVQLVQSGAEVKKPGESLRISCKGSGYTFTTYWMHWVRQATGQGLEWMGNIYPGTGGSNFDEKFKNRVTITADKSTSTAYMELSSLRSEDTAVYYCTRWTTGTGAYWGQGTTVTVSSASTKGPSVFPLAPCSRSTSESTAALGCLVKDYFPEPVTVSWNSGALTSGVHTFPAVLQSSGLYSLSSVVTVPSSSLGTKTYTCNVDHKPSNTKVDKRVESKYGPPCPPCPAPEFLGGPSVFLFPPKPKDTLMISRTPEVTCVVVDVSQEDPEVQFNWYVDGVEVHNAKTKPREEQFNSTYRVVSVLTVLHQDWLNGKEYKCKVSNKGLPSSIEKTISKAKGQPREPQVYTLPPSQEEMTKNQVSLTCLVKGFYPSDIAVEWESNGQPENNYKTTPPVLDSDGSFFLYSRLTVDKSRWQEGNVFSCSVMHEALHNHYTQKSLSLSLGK
light: EIVLTQSPDFQSVTPKEKVTITCKSSQSLLDSGNQKNFLTWYQQKPGQAPRLLIYWASTRESGVPSRFSGSGSGTDFTFTISSLEAEDAATYYCQNDYSYPYTFGQGTKVEIKRTVAAPSVFIFPPSDEQLKSGTASVVCLLNNFYPREAKVQWKVDNALQSGNSQESVTEQDSKDSTYSLSSTLTLSKADYEKHKVYACEVTHQGLSSPVTKSFNRGEC
notes: also called humanized BAP049 clone hum09
B13: BAP049-hum02 (antibody, human IgG4 S228P, kappa, V domains shown)
VH: EVQLVQSGAEVKKPGESLRISCKGSGYTFTTYWMHWVRQATGQGLEWMGNIYPGTGGSNFDEKFKNRVTITADKSTSTAYMELSSLRSEDTAVYYCTRWTTGTGAYWGQGTTVTVSS
VL: DIQMTQSPSSLSASVGDRVTITCKSSQSLLDSGNQKNFLTWYQQKPGQAPRLLIYWASTRESGIPPRFSGSGYGTDFTLTINNIESEDAAYYFCQNDYSYPYTFGQGTKVEIKR
notes: also called clone 2
B14: BAP049-hum03 (antibody, human IgG4 S228P, kappa, V domains shown)
VH: EVQLVQSGAEVKKPGESLRISCKGSGYTFTTYWMHWIRQSPSRGLEWLGNIYPGTGGSNFDEKFKNRFTISRDNSKNTLYLQMNSLRAEDTAVYYCTRWTTGTGAYWGQGTTVTVSS
VL: DIQMTQSPSSLSASVGDRVTITCKSSQSLLDSGNQKNFLTWYQQKPGQAPRLLIYWASTRESGIPPRFSGSGYGTDFTLTINNIESEDAAYYFCQNDYSYPYTFGQGTKVEIKR
notes: also called clone 3
B15: BAP049-hum12 (antibody, human IgG4 S228P, kappa, V domains shown)
VH: EVQLVQSGAEVKKPGESLRISCKGSGYTFTTYWMHWVRQATGQGLEWMGNIYPGTGGSNFDEKFKNRVTITADKSTSTAYMELSSLRSEDTAVYYCTRWTTGTGAYWGQGTTVTVSS
VL: DIQMTQSPSSLSASVGDRVTITCKSSQSLLDSGNQKNFLTWYLQKPGQSPQLLIYWASTRESGVPSRFSGSGSGTDFTFTISSLEAEDAATYYCQNDYSYPYTFGQGTKVEIKR
notes: also called clone 12
B16: BAP049-hum13 (antibody, human IgG4 S228P, kappa)
heavy chain: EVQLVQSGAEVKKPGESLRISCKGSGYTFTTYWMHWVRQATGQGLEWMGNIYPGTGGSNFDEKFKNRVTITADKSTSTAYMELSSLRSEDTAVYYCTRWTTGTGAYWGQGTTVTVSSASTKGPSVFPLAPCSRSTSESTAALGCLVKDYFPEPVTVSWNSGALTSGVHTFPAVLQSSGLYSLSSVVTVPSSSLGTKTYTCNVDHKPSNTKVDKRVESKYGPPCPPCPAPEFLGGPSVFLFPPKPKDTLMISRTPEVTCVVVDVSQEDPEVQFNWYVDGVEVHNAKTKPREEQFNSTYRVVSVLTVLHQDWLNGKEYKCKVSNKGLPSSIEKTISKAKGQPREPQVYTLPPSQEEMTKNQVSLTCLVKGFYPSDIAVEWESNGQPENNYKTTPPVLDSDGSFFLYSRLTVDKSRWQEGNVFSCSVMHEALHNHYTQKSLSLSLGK
light chain: DVVMTQSPLSLPVTLGQPASISCKSSQSLLDSGNQKNFLTWYQQKPGKAPKLLIYWASTRESGVPSRFSGSGSGTDFTFTISSLEAEDAATYYCQNDYSYPYTFGQGTKVEIKRTVAAPSVFIFPPSDEQLKSGTASVVCLLNNFYPREAKVQWKVDNALQSGNSQESVTEQDSKDSTYSLSSTLTLSKADYEKHKVYACEVTHQGLSSPVTKSFNRGEC
notes: also called clone 13
B17: BAP049-hum15 (antibody, human IgG4 S228P, kappa)
heavy chain: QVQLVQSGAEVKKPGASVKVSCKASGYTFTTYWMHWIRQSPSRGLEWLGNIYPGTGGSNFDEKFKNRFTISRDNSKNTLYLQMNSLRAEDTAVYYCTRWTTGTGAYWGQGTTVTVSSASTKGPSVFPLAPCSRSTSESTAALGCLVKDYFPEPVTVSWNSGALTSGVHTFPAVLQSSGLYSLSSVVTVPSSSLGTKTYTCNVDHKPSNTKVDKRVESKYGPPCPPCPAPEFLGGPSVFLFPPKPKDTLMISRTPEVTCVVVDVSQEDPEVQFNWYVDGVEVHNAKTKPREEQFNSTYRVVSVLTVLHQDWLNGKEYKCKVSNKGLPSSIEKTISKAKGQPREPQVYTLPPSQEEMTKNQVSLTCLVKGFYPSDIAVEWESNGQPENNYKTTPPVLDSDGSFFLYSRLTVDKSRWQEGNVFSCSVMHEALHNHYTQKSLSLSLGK
light chain: EIVLTQSPDFQSVTPKEKVTITCKSSQSLLDSGNQKNFLTWYQQKPGQAPRLLIYWASTRESGVPSRFSGSGSGTDFTFTISSLEAEDAATYYCQNDYSYPYTFGQGTKVEIKRTVAAPSVFIFPPSDEQLKSGTASVVCLLNNFYPREAKVQWKVDNALQSGNSQESVTEQDSKDSTYSLSSTLTLSKADYEKHKVYACEVTHQGLSSPVTKSFNRGEC
notes: also called clone 15
B18: BAP049-hum16 (antibody, human IgG4 S228P, kappa, V domains shown)
VH: EVQLVQSGAEVKKPGESLRISCKGSGYTFTTYWMHWVRQAPGQGLEWMGNIYPGTGGSNFDEKFKNRFTISRDNSKNTLYLQMNSLRAEDTAVYYCTRWTTGTGAYWGQGTTVTVSS
VL: EIVLTQSPDFQSVTPKEKVTITCKSSQSLLDSGNQKNFLTWYQQKPGQAPRLLIYWASTRESGVPSRFSGSGSGTDFTFTISSLEAEDAATYYCQNDYSYPYTFGQGTKVEIKR
notes: also called clone 16

Columns and labels:
[1] = target: T1, Programmed Death 1 (PD-1) (UniProt Q15116 25-288, limits assumed); test: rank of the clone among the humanized BAP049 clones by FACS data
[2] = target: T1, Programmed Death 1 (PD-1); test: rank of the clone by competition binding against labelled murine mAb BAP049, first experiment (legends paragraph 52)
[3] = target: T1, Programmed Death 1 (PD-1); test: rank of the clone by competition binding against labelled murine mAb BAP049, second experiment (legends paragraph 52); footnote: empty boxes means worse than 4
[4] = target: T1, Programmed Death 1 (PD-1); test: FACS, blocking of ligand-Ig binding to PD-1, MFI of bound ligand against mAb concentration; legend paragraph 53 names 'PD-LI-Ig and PD-L2-Ig' for FIG. 8A; cells not named

T1 sequence (Q15116 25-288 limits assumed): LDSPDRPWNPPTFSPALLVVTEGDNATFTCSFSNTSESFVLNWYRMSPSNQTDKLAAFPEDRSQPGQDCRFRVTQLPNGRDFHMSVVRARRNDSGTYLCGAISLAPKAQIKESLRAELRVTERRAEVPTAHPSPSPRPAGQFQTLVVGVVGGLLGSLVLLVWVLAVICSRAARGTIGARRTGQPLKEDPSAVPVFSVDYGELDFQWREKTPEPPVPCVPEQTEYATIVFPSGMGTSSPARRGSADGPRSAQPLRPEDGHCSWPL

Binder | Ranking, FACS data [1] | Competition Binding, 1st exp. (rank) [2] | Competition Binding, 2nd exp. (rank) [3] | IC50 (read off the curve) [4]
B1 | 7 | 6 | > 4 | ~1 µg/mL
B2 | 14 | 15 | 15 | 
B3 | 7 | 7 | 4 | 
B4 | 16 | 7 | 15 | 
B5 |  |  |  | ~0.9 µg/mL
B6 |  |  |  | ~0.7 µg/mL
B7 | 6 | 4 | > 4 | 
B8 | 2 | 7 | 2 | ~1 µg/mL
B9 | 5 | 5 | > 4 | ~1 µg/mL
B10 | 1 | 7 | 3 | 
B11 | 4 | 7 | > 4 | 
B12 | 7 | 2 | 4 | 
B13 | 6 | 3 | 2 | 
B14 | 7 | 8 | 14 | 
B15 | 3 | 8 | 16 | 
B16 | 6 | 1 | 1 | 
B17 | 6 | 7 | 15 | 
B18 | 15 | 16 | 15 | 
